# How the values were obtained:
# HeLa Kyoto [1] = experiment: thermal stability score vs G1/S (z-score of summed log2 fold changes over temperatures); higher = more thermally stable than in G1/S
# HeLa Kyoto [2] = experiment: melting temperature (median over replicates), in situ; higher = more thermally stable
# HeLa Kyoto [3] = experiment: solubility change mitosis vs G1/S (difference of NP-40 vs SDS log2 ratios) (log2 ratio difference); higher = more soluble in mitosis
# HeLa Kyoto [4] = experiment: solubility in G1/S (NP-40 vs SDS abundance) (log2 ratio); higher = more soluble; settings: cell cycle stage: G1/S
# [5] = cell cycle stage: early G1 (4.5 h after nocodazole release)
# 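For melting temperature (median over replicates), in situ in this document: HeLa Kyoto cells synchronized by double thymidine or nocodazole block, proteins quantified by TMT10plex mass spectrometry, three independent biological replicates.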
# 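For solubility change mitosis vs G1/S (difference of NP-40 vs SDS log2 ratios) in this document: synchronized HeLa Kyoto cells (double thymidine block for G1/S, nocodazole release for mitosis), protein amounts in NP-40 versus SDS lysates quantified by mass spectrometry, three biological replicates.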
# 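For solubility in G1/S (NP-40 vs SDS abundance) in this document: HeLa Kyoto cells arrested at G1/S by double thymidine block, proteins quantified by TMT10plex mass spectrometry in mild NP-40 versus SDS extracts, three biological replicates.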
# 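For thermal stability score vs G1/S (z-score of summed log2 fold changes over temperatures) in this document: synchronized HeLa Kyoto cells, proteins quantified by TMT10plex mass spectrometry, three biological replicates, mitosis taken 0.5 h after nocodazole release, G1/S directly after double thymidine block.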
sequence,measurement,setting,value
MDLLFGRRKTPEELLRQNQRALNRAMRELDRERQKLETQEKKIIADIKKMAKQGQMDAVRIMAKDLVRTRRYVRKFVLMRANIQAVSLKIQTLKSNNSMAQAMKGVTKAMGTMNRQLKLPQIQKIMMEFERQAEIMDMKEEMMNDAIDDAMGDEEDEEESDAVVSQVLDELGLSLTDELSNLPSTGGSLSVAAGGKKAEAAASALADADADLEERLKNLRRD [CHMP2A],thermal stability score,HeLa Kyoto [1]; [5],0.326
same,thermal stability score,HeLa Kyoto [1]; cell cycle stage: mitosis,0.533
same,melting temperature,HeLa Kyoto [2]; cell cycle stage: G1/S,53 °C
same,melting temperature,HeLa Kyoto [2]; cell cycle stage: mitosis,54.4 °C
same,solubility change mitosis (log2),HeLa Kyoto [3],0.0293
same,solubility in G1/S (log2),HeLa Kyoto [4],0.537
MDLNSASTVVLQVLTQATSQDTAVLKPAEEQLKQWETQPGFYSVLLNIFTNHTLDINVRWLAVLYFKHGIDRYWRRVAPHALSEEEKTTLRAGLITNFNEPINQIATQIAVLIAKVARLDCPRQWPELIPTLIESVKVQDDLRQHRALLTFYHVTKTLASKRLAADRKLFYDLASGIYNFACSLWNHHTDTFLQEVSSGNEAAILSSLERTLLSLKVLRKLTVNGFVEPHKNMEVMGFLHGIFERLKQFLECSRSIGTDNVCRDRLEKTIILFTKVLLDFLDQHPFSFTPLIQRSLEFSVSYVFTEVGEGVTFERFIVQCMNLIKMIVKNYAYKPSKNFEDSSPETLEAHKIKMAFFTYPTLTEICRRLVSHYFLLTEEELTMWEEDPEGFTVEETGGDSWKYSLRPCTEVLFIDIFHEYNQTLTPVLLEMMQTLQGPTNVEDMNALLIKDAVYNAVGLAAYELFDSVDFDQWFKNQLLPELQVIHNRYKPLRRRVIWLIGQWISVKFKSDLRPMLYEAICNLLQDQDLVVRIETATTLKLTVDDFEFRTDQFLPYLETMFTLLFQLLQQVTECDTKMHVLHVLSCVIERVNMQIRPYVGCLVQYLPLLWKQSEEHNMLRCAILTTLIHLVQGLGADSKNLYPFLLPVIQLSTDVSQPPHVYLLEDGLELWLVTLENSPCITPELLRIFQNMSPLLELSSENLRTCFKIINGYIFLSSTEFLQTYAVGLCQSFCELLKEITTEGQVQVLKVVENALKVNPILGPQMFQPILPYVFKGIIEGERYPVVMSTYLGVMGRVLLQNTSFFSSLLNEMAHKFNQEMDQLLGNMIEMWVDRMDNITQPERRKLSALALLSLLPSDNSVIQDKFCGIINISVEGLHDVMTEDPETGTYKDCMLMSHLEEPKVTEDEEPPTEQDKRKKMLALKDPVHTVSLQQFIYEKLKAQQEMLGEQGFQSLMETVDTEIVTQLQEFLQGF [IPO11],thermal stability score,HeLa Kyoto [1]; [5],1.33
same,thermal stability score,HeLa Kyoto [1]; cell cycle stage: mitosis,0.273
same,melting temperature,HeLa Kyoto [2]; cell cycle stage: G1/S,51.5 °C
same,melting temperature,HeLa Kyoto [2]; cell cycle stage: mitosis,50.8 °C
same,solubility change mitosis (log2),HeLa Kyoto [3],-0.25
same,solubility in G1/S (log2),HeLa Kyoto [4],-0.209
MDLRQFLMCLSLCTAFALSKPTEKKDRVHHEPQLSDKVHNDAQSFDYDHDAFLGAEEAKTFDQLTPEESKERLGKIVSKIDGDKDGFVTVDELKDWIKFAQKRWIYEDVERQWKGHDLNEDGLVSWEEYKNATYGYVLDDPDPDDGFNYKQMMVRDERRFKMADKDGDLIATKEEFTAFLHPEEYDYMKDIVVQETMEDIDKNADGFIDLEEYIGDMYSHDGNTDEPEWVKTEREQFVEFRDKNRDGKMDKEETKDWILPSDYDHAEAEARHLVYESDQNKDGKLTKEEIVDKYDLFVGSQATDFGEALVRHDEF [CALU],thermal stability score,HeLa Kyoto [1]; [5],1.04
same,thermal stability score,HeLa Kyoto [1]; cell cycle stage: mitosis,-0.549
same,melting temperature,HeLa Kyoto [2]; cell cycle stage: G1/S,57.8 °C
same,melting temperature,HeLa Kyoto [2]; cell cycle stage: mitosis,60.3 °C
same,solubility change mitosis (log2),HeLa Kyoto [3],0.167
same,solubility in G1/S (log2),HeLa Kyoto [4],0.281
MDLYSTPAAALDRFVARRLQPRKEFVEKARRALGALAAALRERGGRLGAAAPRVLKTVKGGSSGRGTALKGGCDSELVIFLDCFKSYVDQRARRAEILSEMRASLESWWQNPVPGLRLTFPEQSVPGALQFRLTSVDLEDWMDVSLVPAFNVLGQAGSGVKPKPQVYSTLLNSGCQGGEHAACFTELRRNFVNIRPAKLKNLILLVKHWYHQVCLQGLWKETLPPVYALELLTIFAWEQGCKKDAFSLAEGLRTVLGLIQQHQHLCVFWTVNYGFEDPAVGQFLQRQLKRPRPVILDPADPTWDLGNGAAWHWDLLAQEAASCYDHPCFLRGMGDPVQSWKGPGLPRAGCSGLGHPIQLDPNQKTPENSKSLNAVYPRAGSKPPSCPAPGPTGAASIVPSVPGMALDLSQIPTKELDRFIQDHLKPSPQFQEQVKKAIDIILRCLHENCVHKASRVSKGGSFGRGTDLRDGCDVELIIFLNCFTDYKDQGPRRAEILDEMRAQLESWWQDQVPSLSLQFPEQNVPEALQFQLVSTALKSWTDVSLLPAFDAVGQLSSGTKPNPQVYSRLLTSGCQEGEHKACFAELRRNFMNIRPVKLKNLILLVKHWYRQVAAQNKGKGPAPASLPPAYALELLTIFAWEQGCRQDCFNMAQGFRTVLGLVQQHQQLCVYWTVNYSTEDPAMRMHLLGQLRKPRPLVLDPADPTWNVGHGSWELLAQEAAALGMQACFLSRDGTSVQPWDVMPALLYQTPAGDLDKFISEFLQPNRQFLAQVNKAVDTICSFLKENCFRNSPIKVIKVVKGGSSAKGTALRGRSDADLVVFLSCFSQFTEQGNKRAEIISEIRAQLEACQQERQFEVKFEVSKWENPRVLSFSLTSQTMLDQSVDFDVLPAFDALGQLVSGSRPSSQVYVDLIHSYSNAGEYSTCFTELQRDFIISRPTKLKSLIRLVKHWYQQCTKISKGRGSLPPQHGLELLTVYAWEQGGKDSQFNMAEGFRTVLELVTQYRQLCIYWTINYNAKDKTVGDFLKQQLQKPRPIILDPADPTGNLGHNARWDLLAKEAAACTSALCCMGRNGIPIQPWPVKAAV [OAS3],thermal stability score,HeLa Kyoto [1]; [5],1.51
same,thermal stability score,HeLa Kyoto [1]; cell cycle stage: mitosis,1.6
same,melting temperature,HeLa Kyoto [2]; cell cycle stage: G1/S,50.3 °C
same,melting temperature,HeLa Kyoto [2]; cell cycle stage: mitosis,49.8 °C
same,solubility change mitosis (log2),HeLa Kyoto [3],-0.109
same,solubility in G1/S (log2),HeLa Kyoto [4],-0.177

# Reference: the supplement of paper PMC5998384
